First the molecules themselves.
B1: Phytochrome A (Arabidopsis thaliana (Mouse-ear cress)), P14712 (parent)
chain: MSGSRPTQSSEGSRRSRHSARIIAQTTVDAKLHADFEESGSSFDYSTSVRVTGPVVENQPPRSDKVTTTYLHHIQKGKLIQPFGCLLALDEKTFKVIAYSENASELLTMASHAVPSVGEHPVLGIGTDIRSLFTAPSASALQKALGFGDVSLLNPILVHCRTSAKPFYAIIHRVTGSIIIDFEPVKPYEVPMTAAGALQSYKLAAKAITRLQSLPSGSMERLCDTMVQEVFELTGYDRVMAYKFHEDDHGEVVSEVTKPGLEPYLGLHYPATDIPQAARFLFMKNKVRMIVDCNAKHARVLQDEKLSFDLTLCGSTLRAPHSCHLQYMANMDSIASLVMAVVVNEEDGEGDAPDATTQPQKRKRLWGLVVCHNTTPRFVPFPLRYACEFLAQVFAIHVNKEVELDNQMVEKNILRTQTLLCDMLMRDAPLGIVSQSPNIMDLVKCDGAALLYKDKIWKLGTTPSEFHLQEIASWLCEYHMDSTGLSTDSLHDAGFPRALSLGDSVCGMAAVRISSKDMIFWFRSHTAGEVRWGGAKHDPDDRDDARRMHPRSSFKAFLEVVKTRSLPWKDYEMDAIHSLQLILRNAFKDSETTDVNTKVIYSKLNDLKIDGIQELEAVTSEMVRLIETATVPILAVDSDGLVNGWNTKIAELTGLSVDEAIGKHFLTLVEDSSVEIVKRMLENALEGTEEQNVQFEIKTHLSRADAGPISLVVNACASRDLHENVVGVCFVAHDLTGQKTVMDKFTRIEGDYKAIIQNPNPLIPPIFGTDEFGWCTEWNPAMSKLTGLKREEVIDKMLLGEVFGTQKSCCRLKNQEAFVNLGIVLNNAVTSQDPEKVSFAFFTRGGKYVECLLCVSKKLDREGVVTGVFCFLQLASHELQQALHVQRLAERTAVKRLKALAYIKRQIRNPLSGIMFTRKMIEGTELGPEQRRILQTSALCQKQLSKILDDSDLESIIEGCLDLEMKEFTLNEVLTASTSQVMMKSNGKSVRITNETGEEVMSDTLYGDSIRLQQVLADFMLMAVNFTPSGGQLTVSASLRKDQLGRSVHLANLEIRLTHTGAGIPEFLLNQMFGTEEDVSEEGLSLMVSRKLVKLMNGDVQYLRQAGKSSFIITAELAAANK
partner: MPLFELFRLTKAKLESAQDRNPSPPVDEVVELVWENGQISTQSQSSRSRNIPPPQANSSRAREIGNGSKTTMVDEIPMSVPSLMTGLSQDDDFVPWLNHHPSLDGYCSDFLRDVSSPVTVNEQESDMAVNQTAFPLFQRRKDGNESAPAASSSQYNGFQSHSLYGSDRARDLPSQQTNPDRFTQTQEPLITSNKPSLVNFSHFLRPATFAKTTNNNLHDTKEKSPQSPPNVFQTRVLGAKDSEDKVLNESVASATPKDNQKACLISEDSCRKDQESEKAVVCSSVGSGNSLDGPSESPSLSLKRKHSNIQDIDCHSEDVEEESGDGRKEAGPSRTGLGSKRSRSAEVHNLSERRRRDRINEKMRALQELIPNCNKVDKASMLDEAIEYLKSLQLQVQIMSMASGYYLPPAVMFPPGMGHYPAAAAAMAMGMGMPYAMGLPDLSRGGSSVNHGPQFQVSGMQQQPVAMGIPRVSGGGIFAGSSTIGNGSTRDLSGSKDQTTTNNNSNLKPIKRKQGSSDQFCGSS
B2: Phytochrome B (Arabidopsis thaliana (Mouse-ear cress)), P14713 (parent)
chain: MVSGVGGSGGGRGGGRGGEEEPSSSHTPNNRRGGEQAQSSGTKSLRPRSNTESMSKAIQQYTVDARLHAVFEQSGESGKSFDYSQSLKTTTYGSSVPEQQITAYLSRIQRGGYIQPFGCMIAVDESSFRIIGYSENAREMLGIMPQSVPTLEKPEILAMGTDVRSLFTSSSSILLERAFVAREITLLNPVWIHSKNTGKPFYAILHRIDVGVVIDLEPARTEDPALSIAGAVQSQKLAVRAISQLQALPGGDIKLLCDTVVESVRDLTGYDRVMVYKFHEDEHGEVVAESKRDDLEPYIGLHYPATDIPQASRFLFKQNRVRMIVDCNATPVLVVQDDRLTQSMCLVGSTLRAPHGCHSQYMANMGSIASLAMAVIINGNEDDGSNVASGRSSMRLWGLVVCHHTSSRCIPFPLRYACEFLMQAFGLQLNMELQLALQMSEKRVLRTQTLLCDMLLRDSPAGIVTQSPSIMDLVKCDGAAFLYHGKYYPLGVAPSEVQIKDVVEWLLANHADSTGLSTDSLGDAGYPGAAALGDAVCGMAVAYITKRDFLFWFRSHTAKEIKWGGAKHHPEDKDDGQRMHPRSSFQAFLEVVKSRSQPWETAEMDAIHSLQLILRDSFKESEAAMNSKVVDGVVQPCRDMAGEQGIDELGAVAREMVRLIETATVPIFAVDAGGCINGWNAKIAELTGLSVEEAMGKSLVSDLIYKENEATVNKLLSRALRGDEEKNVEVKLKTFSPELQGKAVFVVVNACSSKDYLNNIVGVCFVGQDVTSQKIVMDKFINIQGDYKAIVHSPNPLIPPIFAADENTCCLEWNMAMEKLTGWSRSEVIGKMIVGEVFGSCCMLKGPDALTKFMIVLHNAIGGQDTDKFPFPFFDRNGKFVQALLTANKRVSLEGKVIGAFCFLQIPSPELQQALAVQRRQDTECFTKAKELAYICQVIKNPLSGMRFANSLLEATDLNEDQKQLLETSVSCEKQISRIVGDMDLESIEDGSFVLKREEFFLGSVINAIVSQAMFLLRDRGLQLIRDIPEEIKSIEVFGDQIRIQQLLAEFLLSIIRYAPSQEWVEIHLSQLSKQMADGFAAIRTEFRMACPGEGLPPELVRDMFHSSRWTSPEGLGLSVCRKILKLMNGEVQYIRESERSYFLIILELPVPRKRPLSTASGSGDMMLMMPY
partner: B1 partner
B3: Phytochrome B (Arabidopsis thaliana (Mouse-ear cress)), P14713 (parent)
chain: B2 chain
partner: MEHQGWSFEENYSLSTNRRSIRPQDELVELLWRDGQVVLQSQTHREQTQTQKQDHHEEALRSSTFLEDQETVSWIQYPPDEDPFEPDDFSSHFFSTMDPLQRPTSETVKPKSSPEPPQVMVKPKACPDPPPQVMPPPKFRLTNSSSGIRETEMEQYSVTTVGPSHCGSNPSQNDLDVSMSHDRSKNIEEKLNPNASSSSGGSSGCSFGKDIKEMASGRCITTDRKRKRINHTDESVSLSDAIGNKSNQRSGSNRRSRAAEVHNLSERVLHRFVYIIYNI
B4: Phytochrome A (Arabidopsis thaliana (Mouse-ear cress)), P14712 (parent)
chain: B1 chain
partner: B3 partner

Variants of B1 are the subject of one test. To be noted: with pif3_arath PIF3, O80536.
On to A715V, for which the “effect of a mutation on the interaction” value is reported as “decreasing interaction”. Consider G750E, for which the “effect of a mutation on the interaction” value is “decreasing interaction”.

In the next test the parent is B2. To be noted: with pif3_arath PIF3, O80536.
In the case of G767R, the “effect of a mutation on the interaction” value was “decreasing interaction”.

Variants of B3 are the subject of a further test. To be noted: with PIF4, Q8W2F3-2.
Consider G767R, for which the “effect of a mutation on the interaction” value is given as “decreasing interaction”.

The variants in a further test derive from B4. To be noted: with PIF4, Q8W2F3-2.
Take A715V: the “effect of a mutation on the interaction” value is reported as “decreasing interaction”.

On to G787E, for which the “effect of a mutation on the interaction” value is on record as “decreasing interaction”.

Source of the values: IntAct's records for PubMed 12006496.
